Experimental data reported in article PMC4561382, “Aven recognition of RNA G-quadruplexes regulates translation of the mixed lineage leukemia protooncogenes”.

Experiments:
Aven DiRGG peptide = target: T1, Aven DiRGG peptide (human, UniProt Q9NQS1); experiment: fluorescence plate binding (immobilized peptide); K+-folded RNA; joint range (173-200 in author response); RNA folded in 10 mM Tris-acetate pH 7.7, 200 mM K-acetate, 5 mM Mg-acetate (75 C 10 min, 21 C 5 min); peptide assay 1 h at room temperature, washes in this buffer; pull-down 100 nM RNA in cell lysate with 2 mg/ml heparin, 1 h on ice, beads 30 min at 4 C; details: tags: N-terminal biotin; G4
T1 chain: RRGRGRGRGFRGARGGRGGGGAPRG

Aven TriRG peptide = target: T2, Aven TriRG peptide (human, UniProt Q9NQS1); experiment: fluorescence plate binding (immobilized peptide); K+-folded RNA; range given jointly for TriRG and TriRGme; RNA folded in 10 mM Tris-acetate pH 7.7, 200 mM K-acetate, 5 mM Mg-acetate (75 C 10 min, 21 C 5 min); peptide assay 1 h at room temperature, washes in this buffer; pull-down 100 nM RNA in cell lysate with 2 mg/ml heparin, 1 h on ice, beads 30 min at 4 C; details: tags: N-terminal biotin; G4
T2 chain: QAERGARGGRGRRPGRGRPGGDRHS

B1: sc1 G4 (fluorescein) (structured_RNA)
RNA: GCUGCGGUGUGGAAGGAGUGGUCGGGUUGCGCAGCG
- Kd (Aven DiRGG peptide): ~187 nM
- Kd (Aven TriRG peptide): ~84.8 nM
